Where no end group is shown, it is not given here. [ ]: non-standard residue; d: D form. pY = N[C@@H](Cc1ccc(OP(=O)(O)O)cc1)C(=O)O

Assay [1] deals with T1, wild-type Grb2 (growth factor receptor-bound protein 2), bacterially expressed and purified (UniProt P62993 1-217, Atto488 on the N-terminus of the labelled copy (100 nM); the titrated copy unlabelled).
T1 construct: cloned into a modified pET28a with a TEV site; also called ^WTGrb2; dGrb2
Nature of the assay: MST; monomer–dimer equilibrium of Grb2 in the presence of a saturating concentration of pShc peptide. Conditions: both partners purified.

For assay [2], the target named is T2, bacterial GFP-tagged Grb2 on GFP-trap beads (smFLIM) (UniProt P62993 1-217).
T2 construct: full-length Grb2; The second copy (FRET acceptor, added in solution) carried RFP (mRFP) instead of GFP; By the order of the cloning sites the fluorescent protein lies before Grb2; pET28a cut at NdeI may add an N-terminal His tag (surmised); also called GFP–Grb2; RFP–Grb2; source: E. coli (pET28a construct)
T2 sequence (P62993 whole entry): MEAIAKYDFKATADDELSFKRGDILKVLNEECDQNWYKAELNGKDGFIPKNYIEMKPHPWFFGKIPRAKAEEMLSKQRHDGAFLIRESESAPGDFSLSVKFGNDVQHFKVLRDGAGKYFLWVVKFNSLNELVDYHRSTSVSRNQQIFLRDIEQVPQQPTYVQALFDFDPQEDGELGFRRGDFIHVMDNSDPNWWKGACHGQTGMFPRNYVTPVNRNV
Nature of the assay: FRET or BRET; smFLIM: GFP–Grb2 on GFP-trap beads, RFP–Grb2 added for 1 h, 20 mM Tris-HCl, 50 mM NaCl, pH 8.0; then 10 μM phospho-Shc peptide for an hour. Conditions: both partners purified. (Bioluminescence resonance energy transfer reports proximity on the nanometre scale.)

T1 sequence (P62993 whole entry): as above

B1: phospho-Shc peptide (peptide)
peptide: EEPPDHQ[pY]YNDFPGK
notes: Printed as EEPPDHQ(pY)YN-DFPGK; also called pShc; source: synthetic peptide, bought: GenScript
Take B1: the binding result in assay [1] and in assay [2] was “binds” throughout.

These data come from PMC4491180, “Grb2 monomer–dimer equilibrium determines normal versus oncogenic function” (Nature Communications, 2015).
